Experimental data as given in IntAct's records for PubMed 8940099.

B1: NF-kappa-B inhibitor alpha (Homo sapiens), P25963 (parent)
chain: MFQAAERPQEWAMEGPRDGLKKERLLDDRHDSGLDSMKDEEYEQMVKELQEIRLEPQEVPRGSEPWKQQLTEDGDSFLHLAIIHEEKALTMEVIRQVKGDLAFLNFQNNLQQTPLHLAVITNQPEIAEALLGAGCDPELRDFRGNTPLHLACEQGCLASVGVLTQSCTTPHLHSILKATNYNGHTCLHLASIHGYLGIVELLVSLGADVNAQEPCNGRTALHLAVDLQNPDLVSLLLKCGADVNRVTYQGYSPYQLTWGRPSTRIQQQLGQLTLENLQMLPESEDEESYDTESEFTEFTEDELPYDDCVFGGQRLTL
partner: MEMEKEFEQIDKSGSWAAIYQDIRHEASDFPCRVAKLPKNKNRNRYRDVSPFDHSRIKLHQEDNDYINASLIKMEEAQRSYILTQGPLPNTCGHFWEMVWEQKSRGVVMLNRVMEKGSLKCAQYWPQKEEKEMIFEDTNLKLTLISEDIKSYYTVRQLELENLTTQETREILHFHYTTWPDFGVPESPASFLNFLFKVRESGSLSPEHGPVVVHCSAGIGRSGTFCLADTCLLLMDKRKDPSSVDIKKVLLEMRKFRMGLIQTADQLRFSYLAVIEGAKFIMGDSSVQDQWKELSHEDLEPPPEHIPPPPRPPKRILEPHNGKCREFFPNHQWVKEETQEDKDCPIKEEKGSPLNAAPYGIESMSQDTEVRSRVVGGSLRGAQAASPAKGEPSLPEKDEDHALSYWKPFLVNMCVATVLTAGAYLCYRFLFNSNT

Variants of: B1
Settings: with ptn1_human PTPN1, P18031

effect of a mutation on the interaction | Variant
disrupting interaction | Y42F
